According to the supplement of paper PMC10126150:
± gives the standard deviation of the averaged measurements.

Test system: ATP
Test: switch fluorescence ratio, 500 uM ATP over buffer (Cy3 cluster intensity, sum of 5 cycles each) (fold (ratio)); higher = stronger signal-on switching upon ATP binding; sequences stand for … in TCGTCGGCAGCGTCAGATGTGTATAAGAGACAGTTTTTTTTTTTTTTTTTTTTTTTTT…TC
Conditions: aptamer strand: ATP DNA aptamer (quencher-CACCTGGGGGAGTATTGCGGAGGAAGG + anchor), 100 nM annealed; ATP concentration: 500 uM
Outline: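 For every switch-domain sequence, the fluorescence ratio is the mean of per-cluster values, each being summed target-cycle Cy3 intensity over summed buffer-cycle Cy3 intensity. Clusters outside 100-1000 RFU were excluded. On a modified Illumina MiSeq flow-cell, the Cy3-labelled switching-strand clusters were annealed to 100 nM quencher-labelled ATP aptamer, imaged in selection buffer and then after 15 min with 500 uM ATP at 22 °C. Five such cycles were run, with NaOH stripping and re-annealing between them.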
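Further: ATP exposure 15 min at 22 °C before imaging.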

Sequence	switch fluorescence ratio
CGGTCCGGGT	0.99721 ± 0.00018
CGGTCGGAGG	0.974 ± 0.023
CGGTCGGGGG	0.999 ± 0.032
CGGTCTGTGG	0.995 ± 0.021
CGGTCTGTT	0.9878 ± 0.0066
CGGTCTTCAT	0.9903 ± 0.00043
CGGTGAATTT	0.98263 ± 0.0009
CGGTGCGGGC	1 ± 0.09
CGGTGCTGGG	0.999 ± 0.04
CGGTGGAGGG	0.9849 ± 0.0091
CGGTGGATTC	1.0049 ± 0.00055
CGGTGGGCGA	0.987 ± 0.048
CGGTGGGGGG	1.04 ± 0.03
CGGTGGGTTG	0.969 ± 0.053
CGGTGGTTGC	1.03 ± 0.11
CGGTGTGGCT	0.97 ± 0.016
CGGTGTGTGG	0.999 ± 0.032
CGGTGTTGCC	0.971 ± 0.011
CGGTTAAAAA	0.982 ± 0.066
CGGTTAACCA	1.02 ± 0.021
CGGTTAACGG	1 ± 0.025
CGGTTAATTC	1.012 ± 0.0028
CGGTTAGGCG	1.06 ± 0.012
CGGTTATACT	1.25 ± 0.021
CGGTTATCCT	1.04 ± 0.032

Sequence	switch fluorescence ratio
CGGTTATGGA	0.999 ± 0.026
CGGTTCATCC	1.02 ± 0.014
CGGTTCCGTA	0.971 ± 0.047
CGGTTCGGAT	0.989 ± 0.017
CGGTTCGGTG	0.981 ± 0.014
CGGTTCGTTA	0.9795 ± 0.004
CGGTTGAGGT	0.999 ± 0.047
CGGTTGCGGA	0.995 ± 0.051
CGGTTGGCGG	0.996 ± 0.038
CGGTTGGGCT	1.01 ± 0.054
CGGTTGGGGC	1.11 ± 0.057
CGGTTGTAGC	1 ± 0.021
CGGTTGTAGT	0.993 ± 0.032
CGGTTTATGC	1.09 ± 0.052
CGGTTTGGGG	0.991 ± 0.027
CGGTTTGGGT	0.9931 ± 0.0043
CGGTTTTTAG	1.01 ± 0.044
CGGTTTTTTC	1.03 ± 0.027
CGTAAAATGA	0.992 ± 0.022
CGTAAATTGT	0.9672 ± 0.0039
CGTAAATTTA	0.975 ± 0.018
CGTAACGGGA	1.037 ± 0.0076
CGTAAGGCAG	1 ± 0.038
CGTAAGGGTT	1.008 ± 0.0063
CGTAAGTTTT	0.98 ± 0.03

Sequence	switch fluorescence ratio
CGTACGGGCG	0.956 ± 0.028
CGTACTCTCA	1.037 ± 0.006
CGTACTTTTT	1 ± 0.032
CGTAGACGGT	0.9592 ± 0.0063
CGTAGACTTG	0.9736 ± 0.005
CGTAGCACAG	1.3067 ± 0.0013
CGTAGCATCG	1.1 ± 0.038
CGTAGGGGGC	1.03 ± 0.023
CGTAGGGGGT	1.01 ± 0.03
CGTAGTAGGC	1.12 ± 0.1
CGTAGTGAAG	1.03 ± 0.037
CGTAGTGGAA	0.9919 ± 0.0061
CGTAGTTCGT	1.036 ± 0.0046
CGTATAGGAG	1.02 ± 0.045
CGTATAGGTG	1.06 ± 0.077
CGTATAGTTA	0.987 ± 0.022
CGTATATTAA	0.975 ± 0.068
CGTATCCACT	0.99569 ± 0.00085
CGTATCTGAC	1.04 ± 0.014
CGTATGGCCT	0.958 ± 0.01
CGTATGGGGC	0.948 ± 0.087
CGTATTGGGG	1.04 ± 0.017
CGTATTTCTT	0.989 ± 0.021
CGTATTTTT	0.99 ± 0.018
CGTCAAAAAC	1.38 ± 0.2

Sequence	switch fluorescence ratio
CGTCAATTGA	1.01 ± 0.036
CGTCACATAA	1.22 ± 0.016
CGTCAGGTGT	3.713 ± 0.012
CGTCATATTG	0.997 ± 0.027
CGTCATGGCT	0.957 ± 0.041
CGTCCAGCTT	1.51 ± 0.18
CGTCCGGCGC	1.346 ± 0.0029
CGTCCGGGGA	1.56 ± 0.075
CGTCCGGGGT	1.48 ± 0.62
CGTCCGGTCG	1.02 ± 0.064
CGTCCTGAGG	1.04 ± 0.019
CGTCCTTGTT	0.991 ± 0.029
CGTCCTTTTT	1.05 ± 0.039
CGTCGCGGGC	1.0404 ± 0.00051
CGTCGGGGAT	1 ± 0.037
CGTCGGGGCG	1.02 ± 0.036
CGTCTAAAC	1.13 ± 0.021
CGTCTAACGC	1.02 ± 0.029
CGTCTAAGCG	1 ± 0.086
CGTCTAGAGA	1.02 ± 0.073
CGTCTGGCTG	1 ± 0.057
CGTCTGGGGA	0.996 ± 0.048
CGTCTGTCTC	1.045 ± 0.005
CGTCTTATTA	0.9826 ± 0.0028
CGTCTTGGTG	0.999 ± 0.03
